From US20250115663A1 (CELLDEX THERAPEUTICS, published 2025) come the findings set out here.

The target of test [1] is T1, kappa-sCD40(1-94)-Flag point mutant E33A (human, UniProt P25942 21-114).
T1 construct: not shown: N-terminal human kappa light chain; C-terminal Flag tag
T1 chain: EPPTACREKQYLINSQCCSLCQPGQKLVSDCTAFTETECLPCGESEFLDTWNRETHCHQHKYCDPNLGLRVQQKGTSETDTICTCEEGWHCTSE
The test is described as follows: ELISA, mutated kappa-sCD40(1-94)-Flag captured on anti-Flag.

Test [2] has as its target T2, kappa-sCD40(1-94)-Flag mutant fragment D (multiple mutations of residues 33-36) (human, UniProt P25942 21-114).
T2 construct: The text says only multiple mutations of residues 33-36 (human to mouse differences); that mutant D carries exactly these is inferred; also called D (33-36); not shown: N-terminal human kappa light chain; C-terminal Flag tag
T2 chain: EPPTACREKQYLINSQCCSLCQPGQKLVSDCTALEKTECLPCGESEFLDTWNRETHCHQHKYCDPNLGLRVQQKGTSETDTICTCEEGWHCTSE
The description is as above.

Test [3] has as its target T3, kappa-sCD40(1-94)-Flag point mutant A5T (human, UniProt P25942 21-114).
T3 construct: not shown: N-terminal human kappa light chain; C-terminal Flag tag
T3 chain: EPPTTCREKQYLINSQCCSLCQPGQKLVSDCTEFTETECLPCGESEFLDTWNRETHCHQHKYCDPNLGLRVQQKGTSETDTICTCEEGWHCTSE
The test is described as follows: ELISA, kappa-sCD40-Flag fusion (~2 ug/ml) captured on anti-Flag, anti-human IgG Fc-HRP. The method, then:
(§1) containing the sCD40 fusion proteins were captured to microtiter plates that were pre-coated with 5 μg/ml mouse anti-Flag antibody (Sigma) in PBS and blocked with 5% bovine serum albumin in PBS. Following incubation with the CD40 antibody, the microplates were washed with PBS/Tween, and incubated with a goat anti-human IgG Fc polyclonal reagent conjugated to horseradish peroxidase. After washing, the plates were developed with HRP substrate, and analyzed at OD 450-650 using a microtiter plate reader. An ELISA with a goat anti-human IgG Fab2-HRP to measure kappa chain binding was carried out in parallel to validate the sCD40 fusion protein expression from different transfections.
On the technique in general: ELISA stands for enzyme-linked immunosorbent assay.

In test [4] the target is T4, kappa-sCD40(1-94)-Flag point mutant E36K (human, UniProt P25942 21-114).
T4 construct: not shown: N-terminal human kappa light chain; C-terminal Flag tag
T4 chain: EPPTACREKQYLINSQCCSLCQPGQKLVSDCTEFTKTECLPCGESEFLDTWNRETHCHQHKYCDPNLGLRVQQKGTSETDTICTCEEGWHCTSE
Described as above. The method, then:
as §1

In test [5] the target is T2, kappa-sCD40(1-94)-Flag mutant fragment …. The test is described as above. The method, then: as §1
Test [6] concerns the target T5, kappa-sCD40(1-94)-Flag point mutant P2Q (human, UniProt P25942 21-114).
T5 construct: not shown: N-terminal human kappa light chain; C-terminal Flag tag
T5 chain: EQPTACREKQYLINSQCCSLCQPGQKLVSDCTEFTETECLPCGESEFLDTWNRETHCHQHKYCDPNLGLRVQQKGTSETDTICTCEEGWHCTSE
The test is described as follows: ELISA, mutated kappa-sCD40(1-94)-Flag captured on anti-Flag antibody, detection anti-human IgG Fc-HRP; the concentration axis is taken as that of 3C3. The method, then: as §1, with “1 μg/ml of purified kappa-sCD40-Flag fusion proteins or CHO cell supernatants containing” for “containing”

For test [7], the target named is T6, kappa-sCD40(1-94)-Flag point mutant T35E (human, UniProt P25942 21-114).
T6 construct: not shown: N-terminal human kappa light chain; C-terminal Flag tag
T6 chain: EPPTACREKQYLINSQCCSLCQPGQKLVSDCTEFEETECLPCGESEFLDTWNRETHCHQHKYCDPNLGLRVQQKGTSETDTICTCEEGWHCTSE
The description is as above. The method, then: as §1, with “1 μg/ml of purified kappa-sCD40-Flag fusion proteins or CHO cell supernatants containing” for “containing”

The target in test [8] is T1, kappa-sCD40(1-94)-Flag point mutant E33A. The description is as above. The method, then: as §1, with “1 μg/ml of purified kappa-sCD40-Flag fusion proteins or CHO cell supernatants containing” for “containing”
In test [9] the target is T7, kappa-sCD40(1-94)-Flag point mutant E1G (human, UniProt P25942 22-114).
T7 construct: not shown: N-terminal human kappa light chain; C-terminal Flag tag
The test is described as above. The method, then: as §1, with “1 μg/ml of purified kappa-sCD40-Flag fusion proteins or CHO cell supernatants containing” for “containing”

Test [10] concerns the target T8, kappa-sCD40(1-94)-Flag point mutant P3S (human, UniProt P25942 21-114).
T8 construct: not shown: N-terminal human kappa light chain; C-terminal Flag tag
T8 chain: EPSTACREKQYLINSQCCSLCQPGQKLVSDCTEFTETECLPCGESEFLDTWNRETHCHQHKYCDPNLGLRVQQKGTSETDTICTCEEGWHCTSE
Described as above. The method, then:
as §1, with “1 μg/ml of purified kappa-sCD40-Flag fusion proteins or CHO cell supernatants containing” for “containing”

For test [11], the target named is T9, kappa-sCD40(1-94)-Flag point mutant F34L (human, UniProt P25942 21-114).
T9 construct: not shown: N-terminal human kappa light chain; C-terminal Flag tag
T9 chain: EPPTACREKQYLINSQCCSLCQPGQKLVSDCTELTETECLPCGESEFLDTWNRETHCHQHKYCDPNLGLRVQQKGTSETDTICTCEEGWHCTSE
The description is as above. The method, then: as §1, with “1 μg/ml of purified kappa-sCD40-Flag fusion proteins or CHO cell supernatants containing” for “containing”

B1: anti-CD40 human monoclonal antibody 3G5 (antibody, human IgG2, V domains shown)
VH: QVQLVESGGGVVQPGKSLRLSCAASGFTFSSNGIHWVRQAPGKGLEWVAVIWSDGSNKFYADSVKGRFTISRDNSKNTLYLQMNSLRAEDTAVYYCARASGSGSYYNFFDYWGQGTLVTVSS
VL: EIVMTQSPATLSVSPGERATLSCRASQSVRSNLAWYQQKPGQAPRLLIYGASTRATGIPARFSGSGSGTEFTLTINSLQSEDFAVYYCQQHNKWITFGQGTRLEIK
notes: Human IgG2
With B1, the binding result in test [1] and in test [2] was “no binding” in each case.

B2: anti-CD40 human monoclonal antibody 3C3 (antibody, human IgG2, kappa, V domains shown)
VH: QVQLVESGGGVVQPGRSLRLSCAGSGFIFSRYGMYWVRQAPGKGLEWVAVIWYDGSYKYYADSVKGRFTISRDNSKNTLYLQMNSLRAEDTAVYYCARESPWYYFDYWGQGTLVTVSS
VL: DIQMTQSPSSLSASVGDRVTITCRASQGISNYLAWYQQKPGKVPKLLIYAASTLQSGVPSRFSGSGSGTDFTLTISSLQPEDVATYYCQKYKSAPFTFGPGTKVDIKR
notes: Human IgG2, C-terminal lysine removed; also called anti-CD40 mAb 3C3; CD40 antibody 3C3
The EC50 (read off the curve) is the concentration at which the effect is half-maximal. A low value points to a more potent agent. In the case of B2, the results for the “Average OD” value in test [3], in [4] and in [5] were 1.13 OD 450-650, 1.37 OD 450-650 and 0.124 OD 450-650, respectively. The “EC50 (read off the curve)” value in [6] is approximately 0.02 µg/mL; in test [7], approximately 0.02 µg/mL; in test [8], approximately 0.2 µg/mL; in [9], approximately 0.04 µg/mL; in test [10], approximately 0.03 µg/mL; in test [11] it was approximately 0.06 µg/mL.
